Paper PMC10696396, “HilE represses the activity of the Salmonella virulence regulator HilD via a mechanism distinct from that of intestinal long-chain fatty acids” (The Journal of Biological Chemistry, 2023)

Key:
[1] = target: EYFP-HilD (Salmonella enterica) (UniProt P0CL08); assay: MST; HilE titrated against EYFP-HilD preincubated with 1% DMSO; MST on-time 1.5 s, 25 °C
[2] = target: EYFP-HilD (Salmonella enterica) (UniProt P0CL08); assay: MST; HilE titrated against 50 nM EYFP-HilD; 25 °C, 0.05% Pluronic F-127, MST on-time 1.5 s
[3] = target: HilD (full-length, unfused) (Salmonella enterica) (UniProt P0CL08); assay: SEC-MALS; Superdex 75 Increase 10/300 GL, 50 mM NaH2PO4 pH 7.0, 200 mM NaCl, 0.5 ml/min; protein concentrations of 100 μM (Fig. 4, D and E)

Substance: HilE (natural protein)
- Kd [1]: 1630 nM
- Kd [2]: 1820 nM
- stoichiometry N [3]: 1
